In the data set the test system is HEK293T. Nature of the data set: plasma membrane surface immunostaining intensity (anti-HA, deep receptor scanning) (arbitrary fluorescence units); higher = higher plasma membrane expression.

± gives the uncertainty stated by the source.

We go through 15 sequences from the supplement of paper PMC12458215.

Take “MVNQSSTPGFLLLGFSEHPGLERTLFVVVLTSYLLTLVGNTLIILLSALDPKLHSPMYFFLSNLSFLDLCFTTSCVPQMLVNLWGPKKTISFLDCSVQIFIFLSLGTTECILLTVMAFDRYVAVCQPLHYATIIHPRLCWQLASVAWVIGLVESVVQTPSTLHLPFCPDRQVDDFVCEVPALIRLSCEDTSYNEIQVAVASVFILVVPLSLILVSYGAITWAVLRINSAKGRRKAFGTCSSHLTVVTLFYSSVIAVYLQPKNPYAQERGKFFGLFYAVGTPSLNPLIYTLRNKEVTRAFRRLLGKEMGLTQS [OR2H2]”: the “plasma membrane surface immunostaining intensity” value (GPCR class: A (Olfactory)) amounted to 145 ± 10.

In the case of “MGDWNNSDAVEPIFILRGFPGLEYVHSWLSILFCLAYLVAFMGNVTILSVIWIESSLHQPMYYFISILAVNDLGMSLSTLPTMLAVLWLDAPEIQASACYAQLFFIHTFTFLESSVLLAMAFDRFVAICHPLHYPTILTNSVIGKIGLACLLRSLGVVLPTPLLLRHYHYCHGNALSHAFCLHQDVLRLSCTDARTNSIYGLCVVIATLGVDSIFILLSYVLILNTVLDIASREEQLKALNTCVSHICVVLIFFVPVIGVSMVHRFGKHLSPIVHILMADIYLLLPPVLNPIVYSVRTKQIRLGILHKFVLRRRF [OR51L1]”, the “plasma membrane surface immunostaining intensity” value (GPCR class: A (Olfactory)) was found to be 274 ± 150.

In the case of “MDVVDSLLVNGSNITPPCELGLENETLFCLDQPRPSKEWQPAVQILLYSLIFLLSVLGNTLVITVLIRNKRMRTVTNIFLLSLAVSDLMLCLFCMPFNLIPNLLKDFIFGSAVCKTTTYFMGTSVSVSTFNLVAISLERYGAICKPLQSRVWQTKSHALKVIAATWCLSFTIMTPYPIYSNLVPFTKNNNQTANMCRFLLPNDVMQQSWHTFLLLILFLIPGIVMMVAYGLISLELYQGIKFEASQKKSAKERKPSTTSSGKYEDSDGCYLQKTRPPRKLELRQLSTGSSSRANRIRSNSSAANLMAKKRVIRMLIVIVVLFFLCWMPIFSANAWRAYDTASAERRLSGTPISFILLLSYTSSCVNPIIYCFMNKRFRLGFMATFPCCPNPGPPGARGEVGEEEEGGTTGASLSRFSYSHMSASVPPQ [CCKAR]”, the “plasma membrane surface immunostaining intensity” value (GPCR class: A) is 6447 ± 43.

For the sequence “MSGESMNFSDVFDSSEDYFVSVNTSYYSVDSEMLLCSLQEVRQFSRLFVPIAYSLICVFGLLGNILVVITFAFYKKARSMTDVYLLNMAIADILFVLTLPFWAVSHATGAWVFSNATCKLLKGIYAINFNCGMLLLTCISMDRYIAIVQATKSFRLRSRTLPRSKIICLVVWGLSVIISSSTFVFNQKYNTQGSDVCEPKYQTVSEPIRWKLLMLGLELLFGFFIPLMFMIFCYTFIVKTLVQAQNSKRHKAIRVIIAVVLVFLACQIPHNMVLLVTAANLGKMNRSCQSEKLIGYTKTVTEVLAFLHCCLNPVLYAFIGQKFRNYFLKILKDLWCVRRKYKSSGFSCAGRYSENISRQTSETADNDNASSFTM [CCR6]”, the “plasma membrane surface immunostaining intensity” value (GPCR class: A) stood at 418 ± 33.

Turning to “MTILLNSSLQRATFFLTGFQGLEGLHGWISIPFCFIYLTVILGNLTILHVICTDATLHGPMYYFLGMLAVTDLGLCLSTLPTVLGIFWFDTREIGIPACFTQLFFIHTLSSMESSVLLSMSIDRYVAVCNPLHDSTVLTPACIVKMGLSSVLRSALLILPLPFLLKRFQYCHSHVLAHAYCLHLEIMKLACSSIIVNHIYGLFVVACTVGVDSLLIFLSYALILRTVLSIASHQERLRALNTCVSHICAVLLFYIPMIGLSLVHRFGEHLPRVVHLFMSYVYLLVPPLMNPIIYSIKTKQIRQRIIKKFQFIKSLRCFWKD [OR51G1]”, for the setting “GPCR class: A (Olfactory)”, the “plasma membrane surface immunostaining intensity” value is 116 ± 20.

In the case of “MLSAGLGLLMLVAVVEFLIGLIGNGSLVVWSFREWIRKFNWSSYNLIILGLAGCRFLLQWLIILDLSLFPLFQSSRWLRYLSIFWVLVSQASLWFATFLSVFYCKKITTFDRPAYLWLKQRAYNLSLWCLLGYFIINLLLTVQIGLTFYHPPQGNSSIRYPFESWQYLYAFQLNSGSYLPLVVFLVSSGMLIVSLYTHHKKMKVHSAGRRDVRAKAHITALKSLGCFLLLHLVYIMASPFSITSKTYPPDLTSVFIWETLMAAYPSLHSLILIMGIPRVKQTCQKILWKTVCARRCWGP [TAS2R5]”, the “plasma membrane surface immunostaining intensity” value (GPCR class: Taste) came out at 123 ± 18.

As for “MSPCGPLNLSLAGEATTCAAPWVPNTSAVPPSGASPALPIFSMTLGAVSNLLALALLAQAAGRLRRRRSAATFLLFVASLLATDLAGHVIPGALVLRLYTAGRAPAGGACHFLGGCMVFFGLCPLLLGCGMAVERCVGVTRPLLHAARVSVARARLALAAVAAVALAVALLPLARVGRYELQYPGTWCFIGLGPPGGWRQALLAGLFASLGLVALLAALVCNTLSGLALLRARWRRRSRRPPPASGPDSRRRWGAHGPRSASASSASSIASASTFFGGSRSSGSARRARAHDVEMVGQLVGIMVVSCICWSPMLVLVALAVGGWSSTSLQRPLFLAVRLASWNQILDPWVYILLRQAVLRQLLRLLPPRAGAKGGPAGLGLTPSAWEASSLRSSRHSGLSHF [PTGER1]”, the “plasma membrane surface immunostaining intensity” value (GPCR class: A) came to 1460 ± 250.

On to “MKKENQSFNLDFILLGVTSQQEQNNVFFVIFLCIYPITLTGNLLIILAICADIRLHNPMYFLLANLSLVDIIFSSVTIPKVLANHLLGSKFISFGGCLMQMYFMIALAKADSYTLAAMAYDRAVAISCPLHYTTIMSPRSCILLIAGSWVIGNTSALPHTLLTASLSFCGNQEVANFYCDIMPLLKLSCSDVHFNVKMMYLGVGVFSLPLLCIIVSYVQVFSTVFQVPSTKSLFKAFCTCGSHLTVVFLYYGTTMGMYFRPLTSYSPKDAVITVMYVAVTPALNPFIYSLRNWDMKAALQKLFSKRISS [OR1A2]”, for which, under “GPCR class: A (Olfactory)”, the “plasma membrane surface immunostaining intensity” value was 207 ± 46.

Turning to “MDGSNVTSFVVEEPTNISTGRNASVGNAHRQIPIVHWVIMSISPVGFVENGILLWFLCFRMRRNPFTVYITHLSIADISLLFCIFILSIDYALDYELSSGHYYTIVTLSVTFLFGYNTGLYLLTAISVERCLSVLYPIWYRCHRPKYQSALVCALLWALSCLVTTMEYVMCIDREEESHSRNDCRAVIIFIAILSFLVFTPLMLVSSTILVVKIRKNTWASHSSKLYIVIMVTIIIFLIFAMPMRLLYLLYYEYWSTFGNLHHISLLFSTINSSANPFIYFFVGSSKKKRFKESLKVVLTRAFKDEMQPRRQKDNCNTVTVETVV [MAS1]”, the “plasma membrane surface immunostaining intensity” value (GPCR class: A) is 782 ± 65.

Turning to “MATELDKIFLILAIAEFIISMLGNVFIGLVNCSEGIKNQKVFSADFILTCLAISTIGQLLVILFDSFLVGLASHLYTTYRLGKTVIMLWHMTNHLTTWLATCLSIFYFFKIAHFPHSLFLWLRWRMNGMIVMLLILSLFLLIFDSLVLEIFIDISLNIIDKSNLTLYLDESKTLYDKLSILKTLLSLTSFIPFSLFLTSLLFLFLSLVRHTRNLKLSSLGSRDSSTEAHRRAMKMVMSFLFLFIVHFFSLQVANWIFFMLWNNKCIKFVMLALNAFPSCHSFILILGNSKLQQTAVRLLWHLRNYTKTPNPLPL [TAS2R42]”, under “GPCR class: Taste”, the “plasma membrane surface immunostaining intensity” value was determined as 114 ± 7.7.

For the sequence “MDGTNGSTQTHFILLGFSDRPHLERILFVVILIAYLLTLVGNTTIILVSRLDPHLHTPMYFFLAHLSFLDLSFTTSSIPQLLYNLNGCDKTISYMGCAIQLFLFLGLGGVECLLLAVMAYDRCVAICKPLHYMVIMNPRLCRGLVSVTWGCGVANSLAMSPVTLRLPRCGHHEVDHFLREMPALIRMACVSTVAIEGTVFVLAVGVVLSPLVFILLSYSYIVRAVLQIRSASGRQKAFGTCGSHLTVVSLFYGNIIYMYMQPGASSSQDQGMFLMLFYNIVTPLLNPLIYTLRNREVKGALGRLLLGKRELGKE [OR2W3]”, the “plasma membrane surface immunostaining intensity” value (GPCR class: A (Olfactory)) was 129 ± 7.6.

“MAFLIILITCFVIILATSQPCQTPDDFVAATSPGHIIIGGLFAIHEKMLSSEDSPRRPQIQECVGFEISVFLQTLAMIHSIEMINNSTLLPGVKLGYEIYDTCTEVTVAMAATLRFLSKFNCSRETVEFKCDYSSYMPRVKAVIGSGYSEITMAVSRMLNLQLMPQVGYESTAEILSDKIRFPSFLRTVPSDFHQIKAMAHLIQKSGWNWIGIITTDDDYGRLALNTFIIQAEANNVCIAFKEVLPAFLSDNTIEVRINRTLKKIILEAQVNVIVVFLRQFHVFDLFNKAIEMNINKMWIASDNWSTATKITTIPNVKKIGKVVGFAFRRGNISSFHSFLQNLHLLPSDSHKLLHEYAMHLSACAYVKDTDLSQCIFNHSQRTLAYKANKAIERNFVMRNDFLWDYAEPGLIHSIQLAVFALGYAIRDLCQARDCQNPNAFQPWELLGVLKNVTFTDGWNSFHFDAHGDLNTGYDVVLWKEINGHMTVTKMAEYDLQNDVFIIPDQETKNEFRNLKQIQSKCSKECSPGQMKKTTRSQHICCYECQNCPENHYTNQTDMPHCLLCNNKTHWAPVRSTMCFEKEVEYLNWNDSLAILLLILSLLGIIFVLVVGIIFTRNLNTPVVKSSGGLRVCYVILLCHFLNFASTSFFIGEPQDFTCKTRQTMFGVSFTLCISCILTKSLKILLAFSFDPKLQKFLKCLYRPILIIFTCTGIQVVICTLWLIFAAPTVEVNVSLPRVIILECEEGSILAFGTMLGYIAILAFICFIFAFKGKYENYNEAKFITFGMLIYFIAWITFIPIYATTFGKYVPAVEIIVILISNYGILYCTFIPKCYVIICKQEINTKSAFLKMIYSYSSHSVSSIALSPASLDSMSGNVTMTNPSSSGKSATWQKSKDLQAQAFAHICRENATSVSKTLPRKRMSSI [GPRC6A]”: the “plasma membrane surface immunostaining intensity” value (GPCR class: C) was determined as 158 ± 24.

For the sequence “MNYPLTLEMDLENLEDLFWELDRLDNYNDTSLVENHLCPATEGPLMASFKAVFVPVAYSLIFLLGVIGNVLVLVILERHRQTRSSTETFLFHLAVADLLLVFILPFAVAEGSVGWVLGTFLCKTVIALHKVNFYCSSLLLACIAVDRYLAIVHAVHAYRHRRLLSIHITCGTIWLVGFLLALPEILFAKVSQGHHNNSLPRCTFSQENQAETHAWFTSRFLYHVAGFLLPMLVMGWCYVGVVHRLRQAQRRPQRQKAVRVAILVTSIFFLCWSPYHIVIFLDTLARLKAVDNTCKLNGSLPVAITMCEFLGLAHCCLNPMLYTFAGVKFRSDLSRLLTKLGCTGPASLCQLFPSWRRSSLSESENATSLTTF [CXCR5]”, the “plasma membrane surface immunostaining intensity” value (GPCR class: A) is 630 ± 74.

Consider “MEWGYLLEVTSLLAALALLQRSSGAAAASAKELACQEITVPLCKGIGYNYTYMPNQFNHDTQDEAGLEVHQFWPLVEIQCSPDLKFFLCSMYTPICLEDYKKPLPPCRSVCERAKAGCAPLMRQYGFAWPDRMRCDRLPEQGNPDTLCMDYNRTDLTTAAPSPPRRLPPPPPGEQPPSGSGHGRPPGARPPHRGGGRGGGGGDAAAPPARGGGGGGKARPPGGGAAPCEPGCQCRAPMVSVSSERHPLYNRVKTGQIANCALPCHNPFFSQDERAFTVFWIGLWSVLCFVSTFATVSTFLIDMERFKYPERPIIFLSACYLFVSVGYLVRLVAGHEKVACSGGAPGAGGAGGAGGAAAGAGAAGAGAGGPGGRGEYEELGAVEQHVRYETTGPALCTVVFLLVYFFGMASSIWWVILSLTWFLAAGMKWGNEAIAGYSQYFHLAAWLVPSVKSIAVLALSSVDGDPVAGICYVGNQSLDNLRGFVLAPLVIYLFIGTMFLLAGFVSLFRIRSVIKQQDGPTKTHKLEKLMIRLGLFTVLYTVPAAVVVACLFYEQHNRPRWEATHNCPCLRDLQPDQARRPDYAVFMLKYFMCLVVGITSGVWVWSGKTLESWRSLCTRCCWASKGAAVGGGAGATAAGGGGGPGGGGGGGPGGGGGPGGGGGSLYSDVSTGLTWRSGTASSVSYPKQMPLSQV [FZD8]”, for which the “plasma membrane surface immunostaining intensity” value (GPCR class: F) was found to be 225 ± 23.

On to “MEGISIYTSDNYTEEMGSGDYDSMKEPCFREENANFNKIFLPTIYSIIFLTGIVGNGLVILVMGYQKKLRSMTDKYRLHLSVADLLFVITLPFWAVDAVANWYFGNFLCKAVHVIYTVNLYSSVLILAFISLDRYLAIVHATNSQRPRKLLAEKVVYVGVWIPALLLTIPDFIFANVSEADDRYICDRFYPNDLWVVVFQFQHIMVGLILPGIVILSCYCIIISKLSHSKGHQKRKALKTTVILILAFFACWLPYYIGISIDSFILLEIIKQGCEFENTVHKWISITEALAFFHCCLNPILYAFLGAKFKTSAQHALTSVSRGSSLKILSKGKRGGHSSVSTESESSSFHSS [CXCR4]”, for which the “plasma membrane surface immunostaining intensity” value (GPCR class: A) amounted to 814 ± 140.
